From patent publication US20150037348A1 (AbbVie / Abbott, published 2015)
“And” between values parts separate entries of the source, which are not always exact repeats. Equal entries are not always repeated. Where two headings read alike, the source gives them in different places.

T1: recombinant human IL-12 (rhIL-12) (human, UniProt P29459 23-219; P29460 23-328)
T1 construct: disulfide-linked p35/p40 heterodimer (p70); also called IL-12 p70; rec. human IL12
T1 sequence (looked up) 1: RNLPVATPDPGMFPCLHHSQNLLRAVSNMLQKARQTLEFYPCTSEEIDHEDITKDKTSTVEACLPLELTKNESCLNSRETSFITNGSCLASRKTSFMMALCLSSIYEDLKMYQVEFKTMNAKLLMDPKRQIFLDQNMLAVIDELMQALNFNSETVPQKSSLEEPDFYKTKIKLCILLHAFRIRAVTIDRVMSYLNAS
T1 sequence (looked up) 2: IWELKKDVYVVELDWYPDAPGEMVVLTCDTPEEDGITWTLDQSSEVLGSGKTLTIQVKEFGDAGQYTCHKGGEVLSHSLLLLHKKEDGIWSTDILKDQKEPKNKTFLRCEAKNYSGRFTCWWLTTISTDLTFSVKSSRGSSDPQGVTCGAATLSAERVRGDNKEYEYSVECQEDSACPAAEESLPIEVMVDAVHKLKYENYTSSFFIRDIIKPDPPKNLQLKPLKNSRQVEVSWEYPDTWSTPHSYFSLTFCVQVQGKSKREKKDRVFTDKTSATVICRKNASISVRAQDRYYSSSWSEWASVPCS

T2: human IFN-gamma (human, UniProt P01579 24-166, limits assumed)
T2 sequence (looked up): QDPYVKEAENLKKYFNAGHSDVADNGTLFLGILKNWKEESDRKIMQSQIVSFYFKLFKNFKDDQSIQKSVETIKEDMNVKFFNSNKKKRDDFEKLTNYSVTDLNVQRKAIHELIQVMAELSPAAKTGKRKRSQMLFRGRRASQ

T3: human IL-11 (human, UniProt P20809 22-199)
T3 sequence (looked up): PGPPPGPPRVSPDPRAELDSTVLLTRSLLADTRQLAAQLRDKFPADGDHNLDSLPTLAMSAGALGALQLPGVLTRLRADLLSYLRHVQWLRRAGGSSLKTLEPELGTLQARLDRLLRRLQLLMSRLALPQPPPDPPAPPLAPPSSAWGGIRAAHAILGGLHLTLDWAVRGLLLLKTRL

T4: human IL-12 p40 subunit (free p40) (human, UniProt P29460 23-328)
T4 sequence (looked up): T1 sequence (looked up) 2

B1: J695 (antibody, human IgG1, V domains shown)
VH: QVQLVESGGGVVQPGRSLRLSCAASGFTFSSYGMHWVRQAPGKGLEWVAFIRYDGSNKYYADSVKGRFTISRDNSKNTLYLQMNSLRAEDTAVYYCKTHGSHDNWGQGTMVTVSS
VL: QSVLTQPPSVSGAPGQRVTISCSGSRSNIGSNTVKWYQQLPGTAPKLLIYYNDQRPSGVPDRFSGSKSGTSASLAITGLQAEDEADYYCQSYDRYTHPALLFGTGTKVTVLG
notes: human IgG1 with lambda light chain
B2: J695 (antibody, V domains shown)
VH: B1 VH
VL: B1 VL
notes: Human IgG1 with lambda light chain (detected with anti-human lambda); Made in CHO or COS cells

Experiments:
[1] = biological target: T1, recombinant human IL-12 (rhIL-12); assay: BIAcore SPR, rhIL-12
Protocol: (§1) Before injection of the protein and immediately afterward, HBS buffer alone flowed through each flow cell. […] Cytokines were diluted in HBS running buffer and 50 μl aliquots were injected through the immobilized protein matrices at a flow rate of 5 μl/min. […] The net difference in baseline signal and signal after completion of cytokine injection was taken to represent the binding value of the particular sample. Biosensor matrices were regenerated using 100 mM HCl before injection of the next sample. To determine the dissociation constant (off-rate), association constant (on-rate), BIAcore kinetic evaluation software (version 2.1) was used.
Kd was calculated for each separate experiment and then averaged.

[2] = biological target: T1, recombinant human IL-12 (rhIL-12); assay: receptor binding assay, 125I-hIL-12 on PHA blasts
[3] = biological target: T1, recombinant human IL-12 (rhIL-12); assay: BIAcore, captured J695, soluble rhIL-12, average
Protocol: as §1

[4] = biological target: T1, recombinant human IL-12 (rhIL-12); assay: receptor binding assay, 125I-hIL-12 on PHA blasts; remark: listed apart in the source
Protocol: PHA blast cells isolated as described above, were washed once and resuspended in binding buffer to a cell density of 2×10⁷ cells/ml. […] The cell pellet was examined for cell bound radioactivity using a gamma counter. […] Incubations were carried out in duplicate.
Incubations were carried out in duplicate.

[5] = biological target: T1, recombinant human IL-12 (rhIL-12); assay: cell-based or functional assay
[6] = biological target: T1, recombinant human IL-12 (rhIL-12); assay: cell-based or functional assay; remark: listed apart in the source
[7] = biological target: T1, recombinant human IL-12 (rhIL-12); assay: BIAcore, captured J695, soluble rhIL-12, mean of three experiments
Protocol: Three independent experiments were performed, and the values shown are averages for the three experiments. From these measurements, the apparent dissociation (kd) and association (kₐ) rate constants were derived and used to calculate a Kd value for the interaction (see Table 10).

dog IL-12 = dog IL-12 (dog); assay: cell-based or functional assay
human IFN-gamma = biological target: T2, human IFN-gamma; assay: competition ELISA: soluble cytokine against J695 (100 ng/ml) binding to immobilized human IL-12
Protocol: (§2) The plates were washed 4 times and incubated for 1 h at room temperature with 100 μl mouse anti-human lambda-HRP (1:500 in PBS-T/BSA, Southern Biotech. Ass. Inc., Birmingham, Ala.). The plates were washed 4 times and developed with ABTS (Kirkegaard & Perry Lab, Gaithersburg, Md.) for 20-30 minutes in the dark. The OD₄₅₀ nm was read using a microplate reader (Molecular Devices, Menlo Park, Calif.).

human IL-10 = human IL-10 (human, UniProt P22301 19-178); assay: as above
Protocol: as §2

human IL-11 = biological target: T3, human IL-11; assay: as above
Protocol: as §2

human IGF-I = human IGF-I (human, UniProt P05019 49-118); assay: as above
Protocol: as §2

human TNFα = human TNFα (human, UniProt P01375 77-233); assay: as above
Protocol: as §2

human LIF = human LIF (human, UniProt P15018 23-202); assay: as above
Protocol: as §2

[8] = biological target: T4, human IL-12 p40 subunit (free p40); assay: competition ELISA: soluble human IL-12 p40 (2 nM) against J695 binding to immobilized human IL-12
Protocol: as §2

human TNFα, sequence (P01375 77-233 limits assumed): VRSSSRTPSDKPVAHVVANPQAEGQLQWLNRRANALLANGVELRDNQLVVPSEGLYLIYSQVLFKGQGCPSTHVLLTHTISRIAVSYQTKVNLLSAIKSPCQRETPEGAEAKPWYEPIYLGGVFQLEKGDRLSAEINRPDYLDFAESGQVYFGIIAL
human IL-10, sequence (P22301 19-178 limits assumed): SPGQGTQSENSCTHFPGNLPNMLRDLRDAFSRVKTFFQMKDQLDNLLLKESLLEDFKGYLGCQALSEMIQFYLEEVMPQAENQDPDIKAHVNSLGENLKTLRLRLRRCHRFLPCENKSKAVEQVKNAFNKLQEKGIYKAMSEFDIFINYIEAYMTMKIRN
human LIF, sequence (P15018 23-202 limits assumed): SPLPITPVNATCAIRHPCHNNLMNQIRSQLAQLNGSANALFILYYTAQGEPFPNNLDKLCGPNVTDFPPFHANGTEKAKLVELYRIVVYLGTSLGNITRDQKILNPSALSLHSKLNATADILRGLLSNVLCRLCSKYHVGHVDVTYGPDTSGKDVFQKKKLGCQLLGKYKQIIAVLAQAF

Row | Binder | Kd [1] | IC50 [2] [nM] | Kd [3] | IC50 [4] | PHA assay IC50 (M) p70:p40 1:0 [5] [M] | PHA assay IC50 (M) p70:p40 1:50 [5] [M] | IFN gamma IC50 [6] [nM] | PHA assay IC50 [6] [nM] | Kd [7] | activity on dog IL-12 in the neutralization bioassay, against human IL-12 (dog IL-12) [fold] | binding result (human IFN-gamma) | binding result (human IL-10) | binding result (human IL-11) | binding result (human IGF-I) | binding result (human TNFα) | binding result (human LIF) | binding result [8]
1 | B1 | 0.119 nM and 0.149 nM | 0.011 | 0.134 nM and 0.0974 nM | 0.034 nM and 0.03 nM | 1e-11 | 3.5e-11 | 0.005 | 0.01 | 0.0974 nM and 0.014 µg/mL | – | – | – | – | – | – | – | –
2 | B2 | – | – | – | – | – | – | – | – | – | ~35 | no binding (tested: 2 nM) | no binding (tested: 2 nM) | no binding (tested: 2 nM) | no binding (tested: 2 nM) | no binding (tested: 2 nM) | no binding (tested: 2 nM) | binds
